# Assay results published in US20110229406A1 (U3 PHARMA, published 2011).
# Key:
# [1] = molecular target: T1, HER-3 (human, on cells) (human, UniProt P21860 20-1342); test: indirect FACS Scatchard analysis on cells
# T1 construct: whole, on cells; also called ErbB3; HER-3+ cell lines
# Protocol: Therefore, 10⁵ cells of interest or SK-Br 3 cells were harvested with 10 mM EDTA in PBS, washed once with FACS buffer (PBS, 3% FCS, 0.4% azide) and seeded on a 96-well round bottom plate. The cells were spun for 3 min at 1000 rpm to remove supernatant and then resuspended with α-HER-3 antibody (3 μg/ml) or with antibody dilutions (100 μl/well) starting with 20 μg/ml human monoclonal antibody in FACS buffer, diluted in 1:2 dilution steps. Cell suspensions were incubated on ice for 1 hr, washed twice with FACS buffer and resuspended with secondary antibody (100 μl/well) donkey-anti-human-PE (Jackson) diluted 1:50 in FACS buffer. The cell suspensions were incubated on ice and in the dark for 30 min, washed twice with FACS buffer and analyzed (FACS, Beckman Coulter). According to the FACS Scatchard analysis, the fluorescence mean was calculated for each measurement. Background staining (=without 1st antibody) was subtracted from each fluorescence mean. Scatchard plot with x-value=fluorescence mean and y-value=fluorescence mean/concentration of mAb (nM) was generated.
# [2] = molecular target: T2, rat HER-3 ECD (V5-His fusion protein) (rat, UniProt Q62799 20-643); test: ELISA, column Rat XR (XR = cross-reactive)
# T2 construct: extracellular domain; not shown: V5-His tag
# [3] = molecular target: T3, reduced, denatured HER-3-His tagged purified ECD protein (human, UniProt P21860 20-643); test: dot blot of reduced, denatured HER-3-His ECD
# T3 construct: extracellular domain; Same protein as m2, but reduced and denatured (disulfide bonds broken); not shown: His tag
# T2 sequence (Q62799 20-643): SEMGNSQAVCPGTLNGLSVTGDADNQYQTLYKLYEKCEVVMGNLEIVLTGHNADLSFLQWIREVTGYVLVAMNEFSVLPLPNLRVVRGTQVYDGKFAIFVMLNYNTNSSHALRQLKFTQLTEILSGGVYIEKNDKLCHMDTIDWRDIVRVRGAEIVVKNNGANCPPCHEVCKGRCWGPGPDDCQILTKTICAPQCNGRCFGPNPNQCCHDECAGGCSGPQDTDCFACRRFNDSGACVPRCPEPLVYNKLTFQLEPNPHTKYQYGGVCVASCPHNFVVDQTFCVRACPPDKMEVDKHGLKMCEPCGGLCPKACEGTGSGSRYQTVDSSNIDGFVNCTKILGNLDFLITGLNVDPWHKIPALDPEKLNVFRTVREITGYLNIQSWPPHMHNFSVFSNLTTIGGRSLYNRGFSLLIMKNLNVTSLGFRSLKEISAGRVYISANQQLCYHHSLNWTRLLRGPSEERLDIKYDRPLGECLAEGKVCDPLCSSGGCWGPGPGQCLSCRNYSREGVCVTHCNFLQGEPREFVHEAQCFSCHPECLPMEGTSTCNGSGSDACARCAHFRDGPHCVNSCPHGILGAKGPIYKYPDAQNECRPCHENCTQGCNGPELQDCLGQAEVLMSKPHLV
Binder,Kd [1],binding result [2],binding result [3]
"U1-43 (antibody, V domains shown) VH: QVQLQESGPGLVKPSQTLSLTCTVSGGSISSGGYYWSWIRQHPGKGLEWIGYIYYSGSTYYNPSLRSRVTISVDTSKNQFSLKLSSVTAADTAVYYCARDREREWDDYGDPQGMDVWGQGTTVTVS VL: DIQMTQSPSSLSASVGDRVTITCRASQSISSYLHWYQQKPGKAPKLLIHAASSLQSGVPSRFSGSGSGTDFTLTISSLQPEDFATYYCQQSYSNPLTFGGGTKVEIQ",0.57 nM,,
"U1-61 (antibody, V domains shown) VH: QVQLQESGPGLVKPSQTLSLTCTVSGVSISSGGYYWSWIRQHPGMGLEWIGYIYYSGSTYYNPSLKSRVTISEDTSKNQFSLKLSSVTAADTAVYYCARDSESEYSSSSNYGMDVWGQGTTVTVS VL: DIQMTQSPSSLSASVGDRITITCRASQTISSYLNWYQQKPGKAPKLLIYAASSLQGGVPSRFSGSVSGTDFTLTVSSLQPEDFATYYCQQSYSNPLTFGGGTKVEIK",0.13 nM,,
"U1-44 (antibody, V domains shown) VH: EVQLVQSGAEVKKPGESLKISCKGSGYSFTSYWIGWVRQMPGKGLEWMGIIWPGDSDTIYSPSFQGQVTISADKSISTAYLQWSSLKASDTAMYYCARHENYGDYNYWGQGTLVTVSS VL: DIQMTQSPSSLSASVGDRVTITCRASQSIRSYLNWYQQKPGNAPKLLIYAASSLQSGVPSRFSGSGSGTDFTLTISSLQPEDFALYYCQQSISSPLTFGGGTKVEIK",4 nM,,
U1-62 (antibody) chain 1: EVQLVQSGAEVKKPGESLKISCKGSGYSFTSYWIGWVRQMPGKGLEWMGIIYPGDSDTRYSPSFQGQVTMSADKSISTAYLQLSSHEGLGHRHVLLCETDGWKLRTSRVIETSWGQGTTVTVS chain 2: not shown,20.4 nM,,
"U1-59 (antibody, human IgG1, V domains shown, human IgG1 (gamma 1 constant) with human kappa constant region; also called mAb U1-59; IgG1 mAb consisting of the VH4-34 and the B3 kappa chain) VH: QVQLQQWGAGLLKPSETLSLTCAVYGGSFSGYYWSWIRQPPGKGLEWIGEINHSGSTNYNPSLKSRVTISVETSKNQFSLKLSSVTAADTAVYYCARDKWTWYFDLWGRGTLVTVSS VL: not shown",3.69 nM,binds,
"U1-24 (antibody, V domains shown) VH: QVQLQESGPGLVKPSQTLSLTCTVSGGSISSGDYYWSWIRQHPGKGLEWIGYIYYSGSTYYNPSLKSRVTISVDTSKNQFSLKLSSVTAADTAVYYCARADYDFWNGYFDYWGQGTLVTVSS VL: DIQMTQSPSSLSASVGDRVTITCRASQGIRNDLGWYQQKPGKAPKRLIYAASSLQSGVPSRFSGSGSGTEFTLTISSLQPEDFATYYCLQHNNYPWTFGQGTKVEIK",0.06 nM,,
"U1-7 (antibody, V domains shown) VH: QVQLQESGPGLVKPSQTLSLTCTVSGGSISSGDYYWSWIRQHPGKGLEWIGYIYYSGSTYYNPSLKSRVTISVDTSKNQFSLKLSSVTAADTAVYYCARADYDFWSGYFDYWGQGTLVTVSS VL: DFQMTQSPSSLSASVGDRVTITCRASQDIRNDLGWYRQKPGKAPKRLIYAASSLQSGVPSRFSGSGSGTEFTLTISSLQPEDFATYYCLQHNSYPWTFGQGTKVEIK",0.02 nM,,
"U1-55.1 (antibody, V domains shown) VH: QVQLQESGPGLVKPSETLSLTCTVSGGSVSSGGYYWNWIRQPPGKGLEWIGYINYSGSTNYNPSLKSRVTISVDTSKNQFSLKLSSVTAADTAVYYCARDRELELYYYYYGMDVWGQGTTVTVS VL: not shown",3.7 nM,,
"U1-51 (antibody, V domains shown) VH: QVQLQESGPGLVKPSETLSLTCTVSGGSISSYYWSWIRQPPGKGLEWIGYIYYSGSTNYNPSLKSRVTISVDTSKHQFSLKLSSVTAADTAVYYCARDSSYYDSSGYYLYYYAMDVWGQGTTVTVS VL: not shown",132 nM,,
"U1-47 (antibody, V domains shown) VH: QVQLQQSGPGLVKPSQTLSLTCAISGDSVSSNSAAWNWIRQSPSRGLEWLGRTYYRSKWYNDYAVSVKSRITINPDTSKNQFSLQLNSVTPEDTAVYYCARDYYGSGSFYYYYGMDVWGQGTTVTVS VL: not shown",9.38 nM,,
"U1-49 (antibody, human IgG1, V domains shown, also called human IgG1 HER-3 mAb, U1-49) VH: not shown VL: DILMTQTPLSLSVTPGQPASISCKSSQSLLLSDGGTYLYWYLQKPGQPPQLLIYEVSNRFSGVPDRFSGSGSGTDFTLKISRVEAEDVGVYYCMQSMQLPITFGQGTRLEIK",1 nM,no binding,no binding
"U1-58 (antibody, V domains shown) VH: QVQLVESGGGVVQPGRSLRLSCAASGFTFSSYGMHWVRQAPGKGLEWVAVIWYDGSNKYYADSVKGRFTISRDNSKNTLYLQMNSLRAEDTAVYYCARAARLDYYYGMDVWGQGTTVTVSS VL: DIQMTQSPSSLSASVGDRVSITCRASQSINSYLNWFQQKPGKAPQLLIFGASGLQSGVPSRFSGSGSGTDFTLTINSLQPEDFATYYCQQSYSSPLTFGQGTRLEIK",6.4 nM,,
"U1-41 (antibody, V domains shown) VH: QVQLQESGPGLVKPSQTLSLTCTVSGGSISSGGYYWSWIRQHPGKGLEWIGYIYYSGSTYYNPSLKSRVTISVDTSKNQFSLKLSSVTAADTAVYFCARDRELEGYSNYYGVDVWGQGTTVTVS VL: DIQMTQSPSSLSASVGDRVTITCRASQAISNYLNWYQQKPGKAPKLLIYAASSLQSGVPSRFSGSGSGTDFTLTISSLQPEDFATYYCQQNNSLPITFGQGTRLEIK",0.18 nM,,
"U1-53 (antibody, V domains shown, also called mAb U1-53) VH: EVQLVESGGGLVQPGGSLRLSCAASGFTFSIYSMNWVRQAPGKGLEWVSYISSSSSTIYYADSVKGRFTISRDNAKNSLYLQMNSLRDEDTAVYYCARDRGDFDAFDIWGQGTMVTVSS VL: DIQMTQSPSSLSASVGDRVTITCQASQDITNYLNWYQQKPGKAPKLLIYDASNLETGVPSRFSGSGSGTDFTFTISSLQPEDIATYNCQQCENFPITFGQGTRLEIK",0.082 nM,no binding,no binding
"U1-39 (antibody, V domains shown) VH: EVQLVESGGGLIQPGGSLRLSCAASGFTVSSNYMSWVRQAPGKGLDWVSVIYSGGSTYYADSVKGRFTISRDNSKNTLYLQMNSLRAEDTAVYYCARGQWLDVWGQGTTVTVSS VL: DIVMTQSPLSLPVTPGEPASISCRSSQSLLHSNGYNYLDWYLQRPGQSPQLLFYLGFHRASGVPDRFSGSGSGTDFTLKISRVEAEDVGVYYCRQALQTPLTFGGGTKVEIK",102 nM,,
